Source: patent US12371675B2, “Process and microorganism for synthesis of adipic acid from carboxylic acids” (THE GOVERNING COUNCIL OF THE UNIVERSITY OF TORONTO, priority 2015, dated 2025)
Several values for one entry are separate records, joined by “and”; a condition that tells them apart may be missing. Identical values can stand only once.

B1: MSMEG_2956: carboxylate reductase (CAR) from M. smegmatis ATCC 700084 (protein)
chain: MTIETREDRFNRRIDHLFETDPQFAAARPDEAISAAAADPELRLPAAVKQILAGYADRPALGKRAVEFVTDEEGRTTAKLLPRFDTITYRQLAGRIQAVTNAWHNHPVNAGDRVAILGFTSVDYTTIDIALLELGAVSVPLQTSAPVAQLQPIVAETEPKVIASSVDFLADAVALVESGPAPSRLVVFDYSHEVDDQREAFEAAKGKLAGTGVVVETITDALDRGRSLADAPLYVPDEADPLTLLIYTSGSTGTPKGAMYPESKTATMWQAGSKARWDETLGVMPSITLNFMPMSHVMGRGILCSTLASGGTAYFAARSDLSTFLEDLALVRPTQLNFVPRIWDMLFQEYQSRLDNRRAEGSEDRAEAAVLEEVRTQLLGGRFVSALTGSAPISAEMKSWVEDLLDMHLLEGYGSTEAGAVFIDGQIQRPPVIDYKLVDVPDLGYFATDRPYPRGELLVKSEQMFPGYYKRPEITAEMFDEDGYYRTGDIVAELGPDHLEYLDRRNNVLKLSQGEFVTVSKLEAVFGDSPLVRQIYVYGNSARSYLLAVVVPTEEALSRWDGDELKSRISDSLQDAARAAGLQSYEIPRDFLVETTPFTLENGLLTGIRKLARPKLKAHYGERLEQLYTDLAEGQANELRELRRNGADRPVVETVSRAAVALLGASVTDLRSDAHFTDLGGDSLSALSFSNLLHEIFDVDVPVGVIVSPATDLAGVAAYIEGELRGSKRPTYASVHGRDATEVRARDLALGKFIDAKTLSAAPGLPRSGTEIRTVLLTGATGFLGRYLALEWLERMDLVDGKVICLVRARSDDEARARLDATFDTGDATLLEHYRALAADHLEVIAGDKGEADLGLDHDTWQRLADTVDLIVDPAALVNHVLPYSQMFGPNALGTAELIRIALTTTIKPYVYVSTIGVGQGISPEAFVEDADIREISATRRVDDSYANGYGNSKWAGEVLLREAHDWCGLPVSVFRCDMILADTTYSGQLNLPDMFTRLMLSLVATGIAPGSFYELDADGNRQRAHYDGLPVEFIAEAISTIGSQVTDGFETFHVMNPYDDGIGLDEYVDWLIEAGYPVHRVDDYATWLSRFETALRALPERQRQASLLPLLHNYQQPSPPVCGAMAPTDRFRAAVQDAKIGPDKDIPHVTADVIVKYISNLQMLGLL
B2: MAP_1040c: carboxylate reductase (CAR) from M. paratuberculosis ATCC BAA-968 (protein)
chain: MSTATHDERLDRRVHELIATDPQFAAAQPDPAITAALEQPGLRLPQIIRTVLDGYADRPALGQRVVEFVTDAKTGRTSAQLLPRFETITYSEVAQRVSALGRALSDDAVHPGDRVCVLGFNSVDYATIDMALGAIGAVSVPLQTSAAISSLQPIVAETEPTLIASSVNQLSDAVQLITGAEQAPTRLVVFDYHPQVDDQREAVQDAAARLSSTGVAVQTLAELLERGKDLPAVAEPPADEDSLALLIYTSGSTGAPKGAMYPQSNVGKMWRRGSKNWFGESAASITLNFMPMSHVMGRSILYGTLGNGGTAYFAARSDLSTLLEDLELVRPTELNFVPRIWETLYGEFQRQVERRLSEAGDAGERRAVEAEVLAEQRQYLLGGRFTFAMTGSAPISPELRNWVESLLEMHLMDGYGSTEAGMVLFDGEIQRPPVIDYKLVDVPDLGYFSTDRPHPRGELLLRTENMFPGYYKRAETTAGVFDEDGYYRTGDVFAEIAPDRLVYVDRRNNVLKLAQGEFVTLAKLEAVFGNSPLIRQIYVYGNSAQPYLLAVVVPTEEALASGDPETLKPKIADSLQQVAKEAGLQSYEVPRDFIIETTPFSLENGLLTGIRKLAWPKLKQHYGERLEQMYADLAAGQANELAELRRNGAQAPVLQTVSRAAGAMLGSAASDLSPDAHFTDLGGDSLSALTFGNLLREIFDVDVPVGVIVSPANDLAAIASYIEAERQGSKRPTFASVHGRDATVVRAADLTLDKFLDAETLAAAPNLPKPATEVRTVLLTGATGFLGRYLALEWLERMDMVDGKVIALVRARSDEEARARLDKTFDSGDPKLLAHYQQLAADHLEVIAGDKGEANLGLGQDVWQRLADTVDVIVDPAALVNHVLPYSELFGPNALGTAELIRLALTSKQKPYTYVSTIGVGDQIEPGKFVENADIRQMSATRAINDSYANGYGNSKWAGEVLLREAHDLCGLPVAVFRCDMILADTTYAGQLNLPDMFTRLMLSLVATGIAPGSFYELDADGNRQRAHYDGLPVEFIAAAISTLGSQITDSDTGFQTYHVMNPYDDGVGLDEYVDWLVDAGYSIERIADYSEWLRRFETSLRALPDRQRQYSLLPLLHNYRTPEKPINGSIAPTDVFRAAVQEAKIGPDKDIPHVSPPVIVKYITDLQLLGLL
B3: MSMEG_5739: carboxylate reductase (CAR) from M. smegmatis ATCC 700084 (protein)
chain: MTSDVHDATDGVTETALDDEQSTRRIAELYATDPEFAAAAPLPAVVDAAHKPGLRLAEILQTLFTGYGDRPALGYRARELATDEGGRTVTRLLPRFDTLTYAQVWSRVQAVAAALRHNFAQPIYPGDAVATIGFASPDYLTLDLVCAYLGLVSVPLQHNAPVSRLAPILAEVEPRILTVSAEYLDLAVESVRDVNSVSQLVVFDHHPEVDDHRDALARAREQLAGKGIAVTTLDAIADEGAGLPAEPIYTADHDQRLAMILYTSGSTGAPKGAMYTEAMVARLWTMSFITGDPTPVINVNFMPLNHLGGRIPISTAVQNGGTSYFVPESDMSTLFEDLALVRPTELGLVPRVADMLYQHHLATVDRLVTQGADELTAEKQAGAELREQVLGGRVITGFVSTAPLAAEMRAFLDITLGAHIVDGYGLTETGAVTRDGVIVRPPVIDYKLIDVPELGYFSTDKPYPRGELLVRSQTLTPGYYKRPEVTASVFDRDGYYHTGDVMAETAPDHLVYVDRRNNVLKLAQGEFVAVANLEAVFSGAALVRQIFVYGNSERSFLLAVVVPTPEALEQYDPAALKAALADSLQRTARDAELQSYEVPADFIVETEPFSAANGLLSGVGKLLRPNLKDRYGQRLEQMYADIAATQANQLRELRRAAATQPVIDTLTQAAATILGTGSEVASDAHFTDLGGDSLSALTLSNLLSDFFGFEVPVGTIVNPATNLAQLAQHIEAQRTAGDRRPSFTTVHGADATEIRASELTLDKFIDAETLRAAPGLPKVTTEPRTVLLSGANGWLGRFLTLQWLERLAPVGGTLITIVRGRDDAAARARLTQAYDTDPELSRRFAELADRHLRVVAGDIGDPNLGLTPEIWHRLAAEVDLVVHPAALVNHVLPYRQLFGPNVVGTAEVIKLALTERIKPVTYLSTVSVAMGIPDFEEDGDIRTVSPVRPLDGGYANGYGNSKWAGEVLLREAHDLCGLPVATFRSDMILAHPRYRGQVNVPDMFTRLLLSLLITGVAPRSFYIGDGERPRAHYPGLTVDFVAEAVTTLGAQQREGYVSYDVMNPHDDGISLDVFVDWLIRAGHPIDRVDDYDDWVRRFETALTALPEKRRAQTVLPLLHAFRAPQAPLRGAPEPTEVFHAAVRTAKVGPGDIPHLDEALIDKYIRDLREFGLI

Tests used:
[1] = CAR reductase activity, NADPH oxidation at 340 nm; assay type: biochemical; conditions: ND = no activity was detected
Experimental: Reductase activity was measured spectrophotometrically by following the oxidation of NADPH depletion at 340 nm.
It has been shown that the N. iowensis CAR has a broad substrate range, though its maximal activity was usually observed with aromatic substrates such as benzoic and cinnamic acids. CARs gene sequences homologues to the N. iowensis CAR (Uniprot number: Q6RKB1), were selected from GenBank database. Based on presence of adenylation (AMP-binding PF00501) and reduction (NAD-binding PF07993) domains accompanied with phosphopantetheinyl binding motif (PF00530) 13 CAR genes (mostly from Mycobacterium) were cloned and expressed in E. coli. (Table 4). As CAR activation enzymes, phosphopantetheinyl transferases (PPTs) from E. coli (P19925) and Bacillus subtilis (P39135), were used which were co-expressed with the selected CAR genes from a separate plasmid. Using 1-liter E. coli cultures with overnight induction by IPTG, 12 soluble CAR proteins were purified using affinity chromatography on a Ni-NTA resin.

[2] = In vivo whole cell biotransformation by E. coli expressing CARs; assay type: cell-based; conditions: 24 h; for In vivo conversion efficiency (%) to: 1,4-butanediol: 10 mM 4-hydroxybutyric acid; for In vivo conversion efficiency (%) to: 1,6-hexanediol / In vivo conversion efficiency (%) to: 6-hydroxyhexanoic acid: 10 mM adipic acid
Experimental: E. coli cells expressing recombinant CARs with BSU03570 phosphopantetheinyl transferase were grown on LB media with […], supplemented with 2% glycerol aerobically on 37° C., until the culture optical density (OD 600 nm) reached 0.6-0.8. At this point protein expression was induced with 0.4 mM IPTG and substrate (adipic acid or 4-hydroxybutyric acid) for final 10 mM concentration was added. Samples were taken at 6 h, 24 h and 48 h, centrifuged, supernatant was filtered through 10 kDa centrifugal filters. Products were analyzed with HPLC or LC-MS. Negative control experiments were performed using E. coli cells harboring empty plasmids. All results of in vivo experiments are means from at least two independent determinations.

[3] = In vitro biotransformation by CARs coupled with aldehyde reductase PP_3370; assay type: biochemical; conditions: Table 12 title: 10 mM adipic acid (12 h) in vitro, CARs coupled with PP3370
[4] = as above; assay type: biochemical; conditions: Table 12 title: 10 mM 4-hydroxybutyric acid (12 h) in vitro, CARs coupled with PP3370

Molecule	Activity [U/mg protein] adipic acid, 5 mM [1] [U/mg protein]	In vivo conversion efficiency (%) to: 1,4-butanediol [2] [%]	In vivo conversion efficiency (%) to: 1,6-hexanediol [2]	In vivo conversion efficiency (%) to: 6-hydroxyhexanoic acid [2]	In vitro conversion efficiency % to: 1,6-hexanediol [3] [%]	In vitro conversion efficiency % to: 6-hydroxyhexanoic acid [3] [%]	In vivo conversion efficiency (%) to: 1,4-butanediol [4] [%]	Activity [U/mg protein] 4-hydroxybutyric acid, 5 mM [1] [U/mg protein]
B1	0.078 ± 0.001	59.4 ± 7.3	27.7 ± 10.3%	34.2 ± 9.1%	27.7 ± 10.3	34.2 ± 9.1	59.4 ± 7.3	–
B2	0.053 ± 0.006	81.6 ± 18.3	15.4 ± 1.7%	5.8 ± 0.2%	15.4 ± 1.7	5.8 ± 0.2	81.6 ± 18.3	0.014 ± 0.006
B3	0.054 ± 0.004	86.1±5.2	53.8±1.4% and 57.2 ± 0.6%	9.1% and 9.1 ± 0.7%	57.2 ± 0.6	9.1 ± 0.7	86.1 ± 5.2	0.032 ± 0.024
